Test results reported in publication PMC7040040.

Biological target: T1, pE3-Aβ(3–18) monomer
T1 chain: EFRHDSGYEVHHQKLV
Experiment: SPR (Biacore)
Conditions: chain shown with the change

B1: humanized PBD-C06 (CDR-grafted IgG1:kappa version) VL:F41L (protein)
chain 1: QVQLVQSGAEVKKSGASVKVSCKASGYSFTGYTMNWVRQAPGQGLEWMGLINPYNGVTRYNQKFKGRVTLIRDTSTTTVYMELTSLTSEDTAVYYCAREAKREWDETYWGQGTLVTVSS
chain 2: DVVMTQSPLSLPVTLGQPASISCKSSQSLLYSDGKTYLNWLQQRPGQSPRRLIYLVSKLDSGVPDRFSGSGSGTDFTLKISRVEAEDVGVYYCVQGTHFPFTFGGGTKVEIK
**Q.** For B1, which Kd is on record?
**A.** 162 nM
